The data set relates to ATP. The data set is described as follows: switch fluorescence ratio, 500 uM ATP over buffer (Cy3 cluster intensity, sum of 5 cycles each) (fold (ratio)); higher = stronger signal-on switching upon ATP binding; sequences stand for … in TCGTCGGCAGCGTCAGATGTGTATAAGAGACAGTTTTTTTTTTTTTTTTTTTTTTTTT…TC. The note with it: aptamer strand: ATP DNA aptamer (quencher-CACCTGGGGGAGTATTGCGGAGGAAGG + anchor), 100 nM annealed; ATP concentration: 500 uM. In short, it runs like this: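 Between each of five buffer/ATP cycles, the flow-cell was stripped with NaOH and re-annealed. Each cycle imaged Cy3-labelled switching-strand clusters, annealed to 100 nM quencher-labelled ATP aptamer on a modified Illumina MiSeq flow-cell, first in selection buffer and then after 15 min with 500 uM ATP at 22 °C. The fluorescence ratio is summed target-cycle over summed buffer-cycle Cy3 intensity per cluster, averaged per switch-domain sequence, with clusters outside 100-1000 RFU excluded.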

Drawing on the supplement of paper PMC10126150, this text covers switch fluorescence ratio for 120 sequences.

± gives the standard deviation of the averaged measurements.
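Further: ATP exposure 15 min at 22 °C before imaging.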

Regarding TTAGATGAAT, the switch fluorescence ratio was 1 ± 0.033.

Take TTAGCACGTC: the switch fluorescence ratio came out at 1.076 ± 0.0074.

On to TTAGCCCATG, for which the switch fluorescence ratio came to 1.03 ± 0.029.

Turning to TTAGCGAAGG, the switch fluorescence ratio came to 1.003 ± 0.0046.

Regarding TTAGCGCTTT, the switch fluorescence ratio came out at 0.9853 ± 0.0082.

With TTAGCGGCTG, the switch fluorescence ratio is 0.9585 ± 0.0026.

On to TTAGCGGGAT, for which the switch fluorescence ratio amounted to 1.01 ± 0.044.

With TTAGCGTGGG, the switch fluorescence ratio amounted to 0.99 ± 0.023.

For TTAGCGTTGT, the switch fluorescence ratio is 0.96 ± 0.028.

As for TTAGCTGGTG, the switch fluorescence ratio stood at 1.07 ± 0.067.

Consider TTAGCTGTGC, for which the switch fluorescence ratio amounted to 1.02 ± 0.067.

Regarding TTAGCTGTTT, the switch fluorescence ratio is 0.995 ± 0.035.

As for TTAGCTTGGT, the switch fluorescence ratio is 0.999 ± 0.043.

On to TTAGCTTGTA, for which the switch fluorescence ratio stood at 1.07 ± 0.088.

As for TTAGCTTTTT, the switch fluorescence ratio came to 1.01 ± 0.054.

For TTAGGAATTT, the switch fluorescence ratio came to 1.05 ± 0.075.

Turning to TTAGGACGAT, the switch fluorescence ratio worked out at 0.997 ± 0.051.

As for TTAGGAGAGC, the switch fluorescence ratio was determined as 0.979 ± 0.014.

Take TTAGGAGATG: the switch fluorescence ratio was 0.9802 ± 0.0059.

As for TTAGGAGGGA, the switch fluorescence ratio is 0.9949 ± 0.0064.

Regarding TTAGGATAAT, the switch fluorescence ratio amounted to 1.031 ± 0.0072.

Take TTAGGCCGGC: the switch fluorescence ratio was 0.988 ± 0.11.

For TTAGGCGAGG, the switch fluorescence ratio turned out to be 1.08 ± 0.16.

As for TTAGGCGGCA, the switch fluorescence ratio was determined as 0.974 ± 0.034.

For the sequence TTAGGCGGGA, the switch fluorescence ratio stood at 0.995 ± 0.046.

On to TTAGGCTACT, for which the switch fluorescence ratio amounted to 1.01 ± 0.035.

In the case of TTAGGGAAGG, the switch fluorescence ratio is 0.993 ± 0.02.

TTAGGGAATG: the switch fluorescence ratio stood at 1 ± 0.07.

Turning to TTAGGGACAG, the switch fluorescence ratio is 0.987 ± 0.027.

Take TTAGGGACGC: the switch fluorescence ratio was found to be 1.08 ± 0.025.

On to TTAGGGAGGG, for which the switch fluorescence ratio is 0.998 ± 0.032.

As to TTAGGGCCTA, the switch fluorescence ratio amounted to 0.9844 ± 0.0097.

In the case of TTAGGGGATG, the switch fluorescence ratio stood at 1.026 ± 0.0098.

TTAGGGGCGA: the switch fluorescence ratio stood at 0.994 ± 0.012.

On to TTAGGGGGAA, for which the switch fluorescence ratio was 1.01 ± 0.025.

For TTAGGGGGG, the switch fluorescence ratio was found to be 1.01 ± 0.026.

On to TTAGGGGGTT, for which the switch fluorescence ratio came out at 1.04 ± 0.062.

Turning to TTAGGGTAGG, the switch fluorescence ratio came out at 0.97 ± 0.039.

As for TTAGGGTATG, the switch fluorescence ratio turned out to be 1.03 ± 0.029.

Turning to TTAGGGTGAT, the switch fluorescence ratio came out at 0.974 ± 0.059.

TTAGGGTGTT: the switch fluorescence ratio worked out at 1 ± 0.07.

On to TTAGGGTTCC, for which the switch fluorescence ratio was 0.992 ± 0.035.

Consider TTAGGTAGGG, for which the switch fluorescence ratio was determined as 0.988 ± 0.028.

TTAGGTCATG: the switch fluorescence ratio amounted to 0.9877 ± 0.0034.

TTAGGTCTTC: the switch fluorescence ratio turned out to be 1.02 ± 0.014.

TTAGGTGCAA: the switch fluorescence ratio was 1.17 ± 0.11.

Turning to TTAGGTTTTT, the switch fluorescence ratio stood at 1.08 ± 0.19.

As for TTAGTAAAAT, the switch fluorescence ratio is 1.01 ± 0.017.

For the sequence TTAGTAAACA, the switch fluorescence ratio was 1.01 ± 0.049.

In the case of TTAGTAAGGA, the switch fluorescence ratio came out at 1.009 ± 0.0086.

As for TTAGTAAGGT, the switch fluorescence ratio was 1.01 ± 0.059.

In the case of TTAGTACGAT, the switch fluorescence ratio was 1.018 ± 0.0096.

As for TTAGTATGAC, the switch fluorescence ratio worked out at 1.02 ± 0.042.

Take TTAGTCACGC: the switch fluorescence ratio was found to be 1.029 ± 0.0092.

Consider TTAGTCAGGA, for which the switch fluorescence ratio was 1.04 ± 0.057.

As to TTAGTGCGGA, the switch fluorescence ratio came out at 0.994 ± 0.012.

For TTAGTGGGGC, the switch fluorescence ratio came to 1.03 ± 0.041.

Turning to TTAGTTGAAT, the switch fluorescence ratio amounted to 0.985 ± 0.04.

With TTATAAAACC, the switch fluorescence ratio stood at 1.02 ± 0.028.

For TTATAAAGGT, the switch fluorescence ratio was determined as 1.03 ± 0.079.

Take TTATAACTCG: the switch fluorescence ratio came to 0.995 ± 0.035.

TTATAAGAGT: the switch fluorescence ratio was found to be 0.987 ± 0.025.

With TTATAAGCAG, the switch fluorescence ratio is 1.02 ± 0.017.

Take TTATAAGGGG: the switch fluorescence ratio worked out at 0.979 ± 0.04.

Take TTATAAGTAT: the switch fluorescence ratio was found to be 1 ± 0.031.

As to TTATAATGGG, the switch fluorescence ratio stood at 0.988 ± 0.025.

In the case of TTATACCGTT, the switch fluorescence ratio worked out at 0.999 ± 0.01.

With TTATACGGTT, the switch fluorescence ratio came out at 1.01 ± 0.012.

For the sequence TTATAGAAGA, the switch fluorescence ratio was determined as 1.01 ± 0.0082.

Consider TTATAGATGT, for which the switch fluorescence ratio worked out at 0.992 ± 0.027.

Take TTATAGCACC: the switch fluorescence ratio is 1.06 ± 0.021.

As to TTATAGGCGC, the switch fluorescence ratio stood at 1.03 ± 0.029.

As for TTATAGTTGA, the switch fluorescence ratio worked out at 0.9944 ± 0.0015.

Consider TTATAGTTTC, for which the switch fluorescence ratio is 1.03 ± 0.057.

TTATATAAGT: the switch fluorescence ratio was found to be 1.02 ± 0.023.

Consider TTATATCCGT, for which the switch fluorescence ratio is 1.01 ± 0.031.

In the case of TTATATGAGG, the switch fluorescence ratio came out at 0.962 ± 0.045.

Turning to TTATATGGGA, the switch fluorescence ratio came to 1.01 ± 0.018.

Consider TTATATGTTG, for which the switch fluorescence ratio came out at 1.02 ± 0.026.

For TTATATTAG, the switch fluorescence ratio came to 0.9817 ± 0.001.

Regarding TTATATTAGA, the switch fluorescence ratio stood at 0.971 ± 0.0099.

Turning to TTATATTCCT, the switch fluorescence ratio was found to be 1.11 ± 0.048.

On to TTATATTGTT, for which the switch fluorescence ratio came out at 0.984 ± 0.017.

With TTATCAAGGG, the switch fluorescence ratio worked out at 0.975 ± 0.025.

In the case of TTATCCAATT, the switch fluorescence ratio was found to be 0.9804 ± 0.0089.

Consider TTATCCGGCG, for which the switch fluorescence ratio was found to be 0.986 ± 0.056.

Turning to TTATCCTGGG, the switch fluorescence ratio is 1.01 ± 0.023.

Consider TTATCGAGGA, for which the switch fluorescence ratio worked out at 0.973 ± 0.021.

For TTATCGTATT, the switch fluorescence ratio came to 0.9872 ± 0.0053.

Consider TTATCGTGTT, for which the switch fluorescence ratio was 0.984 ± 0.042.

Consider TTATCTGTTG, for which the switch fluorescence ratio worked out at 1 ± 0.058.

As to TTATGAAATG, the switch fluorescence ratio came out at 1 ± 0.025.

As to TTATGACAAC, the switch fluorescence ratio is 1.015 ± 0.0044.

Take TTATGACCAG: the switch fluorescence ratio stood at 1.009 ± 0.0095.

As to TTATGAGCAA, the switch fluorescence ratio came out at 1.8 ± 0.096.

TTATGAGCGG: the switch fluorescence ratio worked out at 1.02 ± 0.048.

Consider TTATGAGGTT, for which the switch fluorescence ratio was determined as 1.02 ± 0.026.

As to TTATGCAGGG, the switch fluorescence ratio stood at 1.01 ± 0.012.

TTATGCATGT: the switch fluorescence ratio stood at 1.02 ± 0.038.

As for TTATGCGGTG, the switch fluorescence ratio turned out to be 1.0223 ± 0.00072.

Turning to TTATGCTAAA, the switch fluorescence ratio was 0.994 ± 0.04.

Turning to TTATGGAAGA, the switch fluorescence ratio was determined as 0.98 ± 0.026.

As to TTATGGCTGA, the switch fluorescence ratio came out at 0.988 ± 0.017.

In the case of TTATGGCTTT, the switch fluorescence ratio came to 0.985 ± 0.018.

Take TTATGGGCAA: the switch fluorescence ratio came out at 1.1 ± 0.02.

As for TTATGGGCTT, the switch fluorescence ratio came to 1.27 ± 0.42.

For the sequence TTATGGGGAG, the switch fluorescence ratio came out at 1.005 ± 0.0034.

In the case of TTATGGGGGT, the switch fluorescence ratio came out at 1.01 ± 0.03.

TTATGGGGTT: the switch fluorescence ratio was determined as 0.999 ± 0.043.

As for TTATGGTAAC, the switch fluorescence ratio is 1.04 ± 0.018.

Consider TTATGGTGAA, for which the switch fluorescence ratio was found to be 0.956 ± 0.049.

On to TTATGGTTGG, for which the switch fluorescence ratio worked out at 0.995 ± 0.012.

In the case of TTATGTCAGA, the switch fluorescence ratio turned out to be 0.987 ± 0.034.

As for TTATGTGACG, the switch fluorescence ratio came to 0.994 ± 0.082.

As for TTATGTGGGG, the switch fluorescence ratio amounted to 0.993 ± 0.033.

TTATGTTTCT: the switch fluorescence ratio is 0.972 ± 0.026.

TTATTACT: the switch fluorescence ratio came out at 0.981 ± 0.011.

For the sequence TTATTAGTAT, the switch fluorescence ratio was 1.02 ± 0.016.

For TTATTCCATA, the switch fluorescence ratio was determined as 0.98429 ± 0.00091.

As for TTATTCCGGT, the switch fluorescence ratio is 1.006 ± 0.0024.
